Results on 108 sequences are retold here after the supplement of paper PMC9942255.

This data set relates to Bacillus subtilis DB104 (SP-AmyQ fusion secretion). Briefly: AmyQ secretion efficiency, weighted average sort bin (1 = best secretion, 10 = worst) (bin number (weighted average, 1-10)); higher = lower secretion efficiency. Put shortly:
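Occupied alginate beads were sorted by large-particle flow cytometry into 10 equally populated bins according to green/red fluorescence ratio. Each bead (~65 nL) held fluorescein-starch and about 0.3 cells of a B. subtilis DB104 library expressing mature AmyQ fused to designed signal peptides from the amyE locus, and beads were grown about 13 h at room temperature and stained with nile red before sorting. Bin amplicons were Illumina-sequenced, and the secretion score is the read-frequency-weighted average bin number, normalised to beads per bin, excluding low-abundance sequences.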

MKLWMRKTLVVLFTIVTFGLVSPPAAFMADKP gave an AmyQ secretion efficiency of 2.2.
For MKKLLAAGIIGLLTVSIASPSFPAEK the value was 7.88; for MRNLTKTSLLLAGLCTAAQMVFVTHASLEES, 3.72; for MKWMCSICCAAVLLAGGAGQAEAV, 3.36.
Take MKIRKILLSSALSFGMLISAVPALAAKK: the AmyQ secretion efficiency was 1.84.
For MGTTIVAGLAVSAVVGSSMAAAPAEAKTI the value was 6.13; for MKKWLIIAVSLAIAIVLFMYTKGEKKAAGM, 5.84.
MKLWMRKTLVVLFTIVTFGLVSPPAATMADKP displayed an AmyQ secretion efficiency of 2.68.
Turning to MKKSTRKYKILGALGTSYISADSS, the AmyQ secretion efficiency was determined as 7.69.
Turning to MKKRKRRVSALTPSTTLAITAKAKEL, the AmyQ secretion efficiency worked out at 6.69.
Take MFKKHTISLLIIFLLASAVLAKPLEAHTV: the AmyQ secretion efficiency was found to be 2.46.
For MGLGKKLSVAVAASFMSLSISLRKKVQAAEG, the AmyQ secretion efficiency stood at 8.03.
MKKQIITATTAVVLGSTLFAGAGSAQSI had an AmyQ secretion efficiency of 1.62.
With MKRTWNVCLTALLSVLLVAGSVPSHAEAKKP, the AmyQ secretion efficiency came to 1.85.
As for “MKKKTLSLFVGLMLLIGLLFSGSLPYNPNAAEASSS [wt_amyM]”, the AmyQ secretion efficiency was determined as 3.81.
To MKKLLAAGIIGLLTVSIASPNFAAEK belongs 5.52.
For MKLRKMVLTGSVLSLGLLVSASPAFATSP, the AmyQ secretion efficiency stood at 1.54.
Take MFNRLFRVCFLAALIMAFTLPNSVYTQKP: the AmyQ secretion efficiency amounted to 4.86.
For MSGSSFVLIVCIIFTSALFPTFSSVTAAQG, the AmyQ secretion efficiency was 1.04.
With MFNRLFRVCFLAALIMAFRKKNSVYAQKP, the AmyQ secretion efficiency is 7.12.
As to MKQIMIFLTSFMMTGQTALAKDV, the AmyQ secretion efficiency came to 3.81.
In turn, MTTKFTALAVFLLCFMPAAKIKRKHTQASLL came in with an AmyQ secretion efficiency of 7.32.
To MKKWLIIAVSLAIAIVLFRRKKGRAKAAGM belongs 5.92; to MKSKGSIMACLILFSFTITTFINTGTISAFSN, 4.33.
Sequence MTTAAAVLLSLGLVFGFSYGAGHVAEAKTK showed an AmyQ secretion efficiency of 2.82.
For the sequence MKRLFMKASLVLFAVVFVFAVKGAKRAKAETH, the AmyQ secretion efficiency stood at 2.04.
For the sequence MNKLKRLSMLTVMIASVFIFSSHALVAQY, the AmyQ secretion efficiency stood at 5.99.
To MKLKSKLLLSCLALSTVFVATTIANAKRR belongs 7.22; to MKKRLIAPMLLIAAILAFFAMSGSAQAAAY, 2.47; to MNKKYFVLIVCIIFTSALFPTFSSITAAQG, 1.16.
MKLWMRKTLVVLFTIVTFGLVSPPALMADKP: the AmyQ secretion efficiency is 1.9.
As to MKSKGSIMACLILFSFTITTFINTETISFFSN, the AmyQ secretion efficiency amounted to 6.76.
In turn, MKTKTLFIFSAILTLSIFAPNEVFAQTA had an AmyQ secretion efficiency of 1.58.
For MSGTIFFGPIILAFILFAGAIAIPS the value was 6.8; for MTKKAKKKKLVCVLLISGWLAPAASASAQTT, 2.39; for MKNLTKTSLLLAGLCTAAQMVFVTHASAEES, 3.46.
To MKKRLIAPMLLSAASLAFFAMSGSAQDAAY belongs 6.76; to MSFFTKNRLISSVLSTVVISSLLFPGAAGASSK, 1.61.
In turn, MLTKRLLTIYIMLLGLIAWFPGALQAEEK registered an AmyQ secretion efficiency of 2.66.
Sequence MKSKWMSGLLLVAVGFSFTQVMVHIGET yielded an AmyQ secretion efficiency of 5.32.
Sequence MKKAAAVLLSLGLVFGFSYGAGHVHEAKTK displayed an AmyQ secretion efficiency of 5.32.
MRKKLKWLSFLLGFIILLFLFKYQPSNNDS yielded an AmyQ secretion efficiency of 7.17.
Take MPYLKRVLLLLVTGLFMSLFAVTATASAQRK: the AmyQ secretion efficiency turned out to be 2.03.
Sequence MKTKTLFIFSAILTLSIFASTITLSAFAPNETFAQTA gave an AmyQ secretion efficiency of 3.01.
As for MRFTKVRRRRKKLGLAAVFPLTAQAEKA, the AmyQ secretion efficiency amounted to 7.25.
For MRPVFPLILSAVLFLSCFFGARQTEASYSKR the value was 2.56.
As for MRKNRILALFVLSLGLLSFMVTPSSTVSAASK, the AmyQ secretion efficiency came to 2.01.
Take MPIKKKVMMCLAVTLVFGSMSFPTLTNVGGFKE: the AmyQ secretion efficiency came out at 5.79.
On to MKLKSKYKGGCYAAAAIFTAAGVSANAEALDF, for which the AmyQ secretion efficiency stood at 7.31.
In turn, MKKVLMAFIICLSLILSTISSVLAAPPSGAKAESV returned an AmyQ secretion efficiency of 2.8.
In turn, MKTKTFLFIFSAILTLSIFAPNETFAQTA came in with an AmyQ secretion efficiency of 2.73.
To MLKKIALTLCPAIVGSLLFFTKRKKRKASAHVS belongs 7.45.
For MRGKSAVLLSLIMLIAGFLISFSFQK the value was 9.36; for MKKRFFGPIILAFAGAIAIPS, 9.34; for MRPVFPLILSAVLFLSCFFGARQTEASKSKR, 2.19.
With MRKTIFAFLTGLMMFEDDEEDASASPD, the AmyQ secretion efficiency stood at 5.45.
In the case of MNLRKILLSSALSLGMLVSAAPVLETSS, the AmyQ secretion efficiency was 7.05.
In turn, MLCVMMLLFSAIASFPVSAQIKDQ yielded an AmyQ secretion efficiency of 5.57.
For MKKRKRKILLSSALSFGMLISAVPALAAGT the value was 3.32; for MRFTKVVGFLSVLGLAAVAQAEKA, 5.78; for MLKNRILALFVLSLGLLSFMVTPVSAASK, 1.67.
The sequence MNKLKRLSMSKSRGYSVFIFSSHALAAQY gave an AmyQ secretion efficiency of 6.58.
MKSKGSIMACLILFSFTITTFINTETASAFSN: the AmyQ secretion efficiency was 4.22.
In turn, MTKLKMLSMLTVMIASLFIFSSQALMVQY returned an AmyQ secretion efficiency of 5.71.
Take MGLGKKLSVAVAASFMSLSISLDDEVQAAEG: the AmyQ secretion efficiency turned out to be 1.35.
Sequence MSTGTILVIASILLSFLSVLSGGHHESKAFPV had an AmyQ secretion efficiency of 6.64.
For MRPKRPRKLILSAVLFLSCFFGARQTEASASKR, the AmyQ secretion efficiency was found to be 4.56.
Consider MKLKSKLLLSCLALSTVFVATTIANHPTH, for which the AmyQ secretion efficiency was determined as 4.89.
To MKLAKRVSALTPSTTLAITIKAKEL belongs 8.5; to MGGLGTLVLLLLVTGLFMSLFAVTATASAQTG, 3.36; to MKRIRIPMTLALGAALTIAPLSFASAADE, 2.12.
On to MMTKSKLLLSCLALSTVFVATTIANAPTH, for which the AmyQ secretion efficiency stood at 5.2.
For MTKLKMLSMLTVMIASLFIFSSQALGVQY the value was 3.68; for MRFTKVVGFLSVLGLAAVFPLTAQAAPK, 1.91; for MRKSLITLGLASVIGTSSFLIPFTSKTLSAETL, 4.7.
MMKKGLLAGALTATVLFGTCAVDVPGIISPKTAEAAKR gave an AmyQ secretion efficiency of 4.03.
MKKVLMAFIICLSLILSVLAAPPSGDKAESV returned an AmyQ secretion efficiency of 5.71.
Take MKLAKRVSALTPSTTLAITAKRKEL: the AmyQ secretion efficiency was determined as 8.52.
For the sequence “MKKTSSFNFSSTAFLVFLSVVLVTTVFLVKQQESVAQAKQL”, the AmyQ secretion efficiency is 2.65.
Sequence MKKGIIRFLLVSFVLFFALSTGSTGVQAAPA displayed an AmyQ secretion efficiency of 1.88.
MKLAKRINMVSALTPSTTLAITAKAKEL gave an AmyQ secretion efficiency of 7.42.
To MLKKKWMVGLLAGCLAAGKKKYNAFATEN belongs 7.66; to MKKKQVMLALTAAAGLGLTALHSAPAFKAAPL, 6.7.
For MHLIRAAGAVCLAVVLIAGCRKKKRKRHRAEGENT, the AmyQ secretion efficiency worked out at 7.2.
MKLWMRKTLVVLFTIVTFGLVSPPAALMMDKP: the AmyQ secretion efficiency was 2.97.
For MKRMIVRMTLPLLIVCLAFSKKSASARAASE, the AmyQ secretion efficiency is 7.39.
For MKKLTLAFLVFLSVVLVTTVFLVKQQESVAQAKQL the value was 3.11; for MPYLKRVLLLLVTGLFMSLFAVTATASVQTG, 1.13.
With MTKLKMLSMLTVMIASLFIFSSQALDVQY, the AmyQ secretion efficiency was determined as 6.18.
Sequence MKRLFISSAVLLSILLPSGQAHAQSA displayed an AmyQ secretion efficiency of 2.34.
For the sequence MMMWLIIAVSLAIAIVLFMYTKGEAKAAGM, the AmyQ secretion efficiency was found to be 6.9.
MKKRKVLTGSVLSLGLLVSASPAFATSP: the AmyQ secretion efficiency is 1.37.
In the case of MKKIVSILFMFGLVMGFSQFQPSTVFAAKK, the AmyQ secretion efficiency is 2.86.
Regarding MKKKLAAGLTASAIVGTTLVVTPNEAATI, the AmyQ secretion efficiency is 6.96.
To MKTKTLFIFSAILTLSIFAPNTTFAQTA belongs 2.
The sequence MTKLKMLSMLTVMIASLFIFSSQALAKRK showed an AmyQ secretion efficiency of 4.03.
As for MKLAKRVSALTPSTTLAITAKMKEL, the AmyQ secretion efficiency came out at 6.79.
For MKKWLIIAVSLAIAIVLFMAFKGEAKAAGM the value was 3.57; for MLKKKWMVGLLAGCLAAGGFSYNHFATEN, 6.62; for MKWMCSICCAAVLLAGTVFLLGAAQAEAV, 3.59.
Regarding MKKAFLVFLSVVLVTTVFLVKQQESVAQRKQL, the AmyQ secretion efficiency worked out at 2.03.
The sequence MKRSISKRKRCKKITLLTMGGMIASPASAAGT gave an AmyQ secretion efficiency of 6.02.
To MHLIRAAGAVCLAVVLIAGCRFNEDQHQAEGDED belongs 6.29; to MRSYIKVLTMCFLGLILFVPTKLADNS, 5.85; to MKLAKRVSALTPSTTLAITAKAAPK, 7.94.
Consider MGLGKKLSVAVAASFPGVQAAEG, for which the AmyQ secretion efficiency came out at 7.32.
Sequence MLTKRLRKKKRRLLGLIAWFPGAAQAEEK gave an AmyQ secretion efficiency of 7.67.
Regarding MKRMIVRMTKRKRRRCLAFSSFSASARAASE, the AmyQ secretion efficiency was 8.6.
